# Experimental data taken from PMC12589307, “^1H, ^13C, and ^15N resonance assignment of the C terminal region of the disordered postsynaptic scaffold protein GKAP” (Biomolecular Nmr Assignments, 2025).
# Where no end group is shown, it is not given here.
# T1: Shank1-PDZ (UniProt Q9WV48, residues 654-768) (UniProt Q9WV48 654-768)
# T1 construct: Shank1 PDZ domain, UniProt Q9WV48, residues 654-768; 100% identical with the human homolog Q9Y566 residues 654-768; also called Shank-PDZ; source: production and purification by the protocol of Sánta et al. 2022
# T1 sequence (looked up): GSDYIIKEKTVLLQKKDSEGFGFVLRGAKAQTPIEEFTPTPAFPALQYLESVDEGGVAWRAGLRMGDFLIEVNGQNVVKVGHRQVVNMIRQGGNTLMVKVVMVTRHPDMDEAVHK
# Biological target: T1, Shank1-PDZ (UniProt Q9WV48, residues …)
# Assay: BLI; BLItz instrument, NTA biosensors; His-tagged GKAP-Ct43 immobilised as bait at 200 nM; Shank1-PDZ at 4, 2, 1 and 0.5 uM; 50 mM NaPi pH 7.4, 20 mM NaCl, 20 mM imidazole, 0.1% BSA, 0.02% Tween20; room temperature (no temperature control); global fit, average of three independent measurements
# Conditions: both partners purified
binder,measurement,value
"GSHMSSQRQEARKRLMAAKRAASVRQNSATESAESIEIYIPEAQTRL (domain or fragment, also: 6xHis tag named, not in given chain, vector-derived residues that remain N-terminal after TEV cleavage; in the uncleaved BLI construct they follow the 6xHis tag and the TEV site; Guanylate kinase-associated protein GKAP (rGKAP1a), Rattus norvegicus, UniProt P97836, residues 950-992; 100% identical to human DLGAP1 O14490 residues 935-977; Modified pET-15b vector with 6xHis tag and TEV site; also called rGKAP1a C-terminus; source: TEV …) [GKAP-Ct43, C-terminal 43 residues of Rattus norvegicus GKAP, with 6xHis tag kept]",Kd,3.1 ± 0.7 µM
